In one assay the target is unmodified PBP protein. Nature of the assay: Fluorescence polarisation competition binding assay (BODIPY labelled penicillin tracer). As to conditions: competition with BODIPY labelled penicillin tracer. The method, then: Fluorescence polarisation competition was carried out using a BODIPY labelled Penicillin tracer and unlabelled peptides, for competition to an unmodified PBP protein.
Fluorescent BODIPY labelled penicillin at 5 mM in DMSO were diluted to 6.25 nM in binding buffer (10 mM HEPES, pH8, 300 mM NaCl, 2% glycerol). Unmodified PBP were diluted to 2 μM in binding buffer. A two-fold dilution series of unmodified peptide was prepared across 12 wells in binding buffer, with the highest final well concentration being 60 μM, and the lowest concentration being […]. 5 μl of the unmodified peptide dilution series or Carbenicillin were added to 12 wells of a 384-Well NBS™ Low Volume Microplate (Fisher Scientific). 10 μl diluted fluorescent BODIPY labelled penicillin (6.25 nM) were then added to the 12 wells containing the unmodified peptide dilutions. 10 μl of unmodified PBP (2 μM) were then added to the 12 wells containing unmodified peptide and fluorescent BODIPY labelled penicillin to bring the total volume to 25 μl, and the final concentration of Fluorescent BODIPY labelled penicillin to 2.5 nM and unmodified PBP to 800 nM. […]
Fluorescence polarisation was measured every 5 minutes for a period of one hour at room temperature. […]
Data were analysed in GraphPad software to derive values for the inhibition constant. […]
For orientation: Fluorescence polarisation rises when a labelled molecule tumbles more slowly, as on binding a larger partner.

The target in another assay is PBP3 (E. coli) (Escherichia coli, UniProt P0AD68). Nature of the assay: Fluorescence polarisation direct binding assay. The settings on record: direct binding to PBP 3 (E. coli). The method, then:
Fluorescent peptides at 10 mM in DMSO were diluted to 2.5 nM in binding buffer (10 mM HEPES, pH8, 300 mM NaCl, 2% glycerol). A two-fold dilution series of PBP protein was then prepared across 12 wells in binding buffer, with the highest concentration being 21 μM, and the lowest concentration being 17 nM.
10 μl diluted fluorescent peptide (2.5 nM) was added into 12 wells of a 384-Well NBS™ Low Volume Microplate (Fisher Scientific). 10 μl PBP dilution series was then added to the wells containing the fluorescent peptide, and 5 μl binding buffer was added to bring the total volume to 25 μl and the final concentration of peptide tracer to 1 nM. A control well lacking PBP protein was prepared with a final peptide concentration of 1 nM to a final volume of 25 μl in binding buffer. Fluorescence polarisation was measured every 5 minutes for a period of one hour at room temperature. The gain and focal height were optimised using the control well lacking protein.
Data were analysed in GraphPad software to derive values for the dissociation constant. Experiments were repeated at least three times.
Certain peptide ligands of the invention were tested in the above mentioned binding assay and the results are shown in Table 1 for binding to the indicated PBP: […]

For assay [1], the target named is T1, PBP3 of E. coli (E. coli), P0AD68.
T1 chain: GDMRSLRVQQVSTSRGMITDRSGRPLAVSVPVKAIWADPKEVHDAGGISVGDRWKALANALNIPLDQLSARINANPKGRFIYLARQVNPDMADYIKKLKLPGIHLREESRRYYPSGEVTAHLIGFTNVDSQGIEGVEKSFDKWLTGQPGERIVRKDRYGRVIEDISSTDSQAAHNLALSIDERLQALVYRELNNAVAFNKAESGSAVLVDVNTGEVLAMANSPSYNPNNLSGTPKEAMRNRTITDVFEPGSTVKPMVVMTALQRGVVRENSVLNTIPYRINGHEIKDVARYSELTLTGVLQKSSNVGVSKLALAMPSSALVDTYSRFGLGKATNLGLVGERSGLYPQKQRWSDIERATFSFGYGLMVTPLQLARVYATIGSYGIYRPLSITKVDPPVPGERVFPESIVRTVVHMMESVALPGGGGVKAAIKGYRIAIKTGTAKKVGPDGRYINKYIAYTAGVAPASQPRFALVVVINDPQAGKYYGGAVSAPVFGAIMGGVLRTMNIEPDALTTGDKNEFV
Nature of the assay: FP competition, tracer BCY12820.

Assay [2] shares this target. Nature of the assay: fluorescence polarisation competition, BODIPY-labelled penicillin as tracer.

Where only a bound is given, the exact number is not on record here.

Sequence of PBP3 (E. coli) (P0AD68 1-577): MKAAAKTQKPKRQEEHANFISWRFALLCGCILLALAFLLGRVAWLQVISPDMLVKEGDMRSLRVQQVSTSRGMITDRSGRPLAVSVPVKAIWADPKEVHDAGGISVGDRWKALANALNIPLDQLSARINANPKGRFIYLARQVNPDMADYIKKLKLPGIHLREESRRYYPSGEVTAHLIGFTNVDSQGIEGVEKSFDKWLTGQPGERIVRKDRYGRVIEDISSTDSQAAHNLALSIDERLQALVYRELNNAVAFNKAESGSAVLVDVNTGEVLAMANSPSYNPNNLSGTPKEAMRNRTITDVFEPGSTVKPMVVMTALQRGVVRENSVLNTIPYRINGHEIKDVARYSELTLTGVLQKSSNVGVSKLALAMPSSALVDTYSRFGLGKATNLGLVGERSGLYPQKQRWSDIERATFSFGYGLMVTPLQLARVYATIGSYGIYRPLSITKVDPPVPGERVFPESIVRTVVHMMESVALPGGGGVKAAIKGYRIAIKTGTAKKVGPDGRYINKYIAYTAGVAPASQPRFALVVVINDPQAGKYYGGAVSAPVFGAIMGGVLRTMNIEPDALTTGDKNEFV

As to “A-CiLENCiiYYVPYYGYACiii-A, TATA bicyclic peptide [BCY12123, A-(SEQ ID NO: 3)-A]”, on unmodified PBP protein, the Ki was 1390 nM.
For the molecule `Cc1cc(C)n2c1C=C1C=CC(CCC(=O)Nc3ccc(OCC(=O)N[C@@H]4C(=O)N5[C@@H]4SC(C)(C)[C@@H]5C(=O)O)cc3)=[N+]1[B-]2(F)F` [Bocillin], the Kd at PBP3 (E. coli) was found to be 440 nM.
Regarding CSFPKCPWVEGC (modifications not checked) [BCY12742], the Ki in assay [1] was found to be 3 nM.
Turning to ACVYPKCPWVEGCA (modifications not checked) [BCY13768], the Ki in assay [1] was < 3820 nM.
On the same count and under the same terms, the value for ACWFPNCPWVEGCA (modifications not checked) [BCY13764] was < 4080 nM.
ACLENCYYVPYYGYACA (modifications not checked) [BCY12123] returned an inhibition constant (Ki) in assay [2] of 1390 nM.
Molecule CSFPKCPWVEGC (modifications not checked) [BCY13949] registered a Ki in assay [1] of 45400 nM.
Still for that read-out and setting: the value for ACSFPACPWVEGCA (modifications not checked) [BCY13659] was 4 nM; that for ACSFPKCPWVEKCA (modifications not checked) [BCY13419] was 40 nM.
As to ACQFPVCPWVEGCA (modifications not checked) [BCY13226], in assay [1], the Ki stood at 20 nM.
ACSFPKCPWVEACA (modifications not checked) [BCY13664] yielded a Ki in assay [1] of 30 nM.
In turn, ACAFPKCPWVEGCA (modifications not checked) [BCY13656] registered an inhibition constant Ki in assay [1] of 5 nM.

The Ki is a measure of affinity in units of concentration, obtained from inhibition or displacement. Low values mean tighter binding, high ones weaker binding. As usually defined, the Kd is a measure of binding affinity in units of concentration.

Source of the values: US20230106511A1, “PBP3 BINDING BICYCLIC PEPTIDE LIGANDS” (priority 2020, published 2023).
